From US8460910B2 (Illumina Cambridge Limited, priority 2003, dated 2013)
Substitutions are numbered along the chain they refer to. Names may count otherwise.

B1: YAV: 9° N polymerase (exo-) mutant, motif A region YAV, also A485L; SEQ ID NO: 22 (protein)
chain: MILDTDYITENGKPVIRVFKKENGEFKIEYDRTFEPYFYALLKDDSAIEDVKKVTAKRHGTVVKVKRAEKVQKKFLGRPIEVWKLYFNHPQDVPAIRDRIRAHPAVVDIYEYDIPFAKRYLIDKGLIPMEGDEELTMLAFAIATLYHEGEEFGTGPILMISYADGSEARVITWKKIDLPYVDVVSTEKEMIKRFLRVVREKDPDVLITYNGDNFDFAYLKKRCEELGIKFTLGRDGSEPKIQRMGDRFAVEVKGRIHFDLYPVIRRTINLPTYTLEAVYEAVFGKPKEKVYAEEIAQAWESGEGLERVARYSMEDAKVTYELGREFFPMEAQLSRLIGQSLWDVSRSSTGNLVEWFLLRKAYKRNELAPNKPDERELARRRGGYAGGYVKEPERGLWDNIVYLDFRSYAVSIIITHNVSPDTLNREGCKEYDVAPEVGHKFCKDFPGFIPSLLGDLLEERQKIKRKMKATVDPLEKKLLDYRQRLIKILANSFYGYYGYAKARWYCKECAESVTAWGREYIEMVIRELEEKFGFKVLYADTDGLHATIPGADAETVKKKAKEFLKYINPKLPGLLELEYEGFYVRGFFVTKKKYAVIDEEGKITTRGLEIVRRDWSEIAKETQARVLEAILKHGDVEEAVRIVKEVTEKLSKYEVPPEKLVIHEQITRDLRDYKATGPHVAVAKRLAARGVKIRPGTVISYIVLKGSGRIGDRAIPADEFDPTKHRYDAEYYIENQVLPAVERILKAFGYRKEDLRYQKTKQVGLGAWLKVKGKK
modifications: 9oN polymerase variant (exo-) with L408Y/Y409A/P410V mutations
B2: AAA: 9° N DM-derived polymerase with amino acids 408-410 AAA (protein, UniProt Q56366 1-775, looked up, variant D141A E143A L408A Y409A P410A A485L)
DNA polymerase: B1 chain with Y408A, V410A
B3: 2E: L408V/Y409A/P410L R484I/A485S/I486N 9° N mutant; SEQ ID NO: 12 (protein)
chain: B1 chain with Y408V, V410L, R484I, L485S, I486N
modifications: 9oN polymerase variant (exo-) with L408V/Y409A/P410L R484I/A485S/I486N mutations
B4: VAL (ED polymerase): 9° N DM derivative with L408V; V409A; P410L (motif A VAL) plus A485L; SEQ ID NO: 18 (protein)
chain: B1 chain with Y408V, V410L
modifications: 9oN polymerase variant (exo-) with L408V/Y409A/P410L and A485L mutations

Assays:
[1] = system: cordycepin (3′deoxy adenosine triphosphate); conditions: Vent polymerase variant; cited from earlier work
3′ modified nucleotide [2] = assay: Single incorporation method (single cycle of nucleotide incorporation, gel read-out); assay type: biochemical; conditions: 45° C.; for incorporation of uracil nucleotide analogues with different 3′ modifications: 3′ O-allyl, 3′ S-methyl and 3′ O-azido methyl, single cycle, FIG. 3
Experimental: In order to determine whether the modified polymerases described in the previous examples have the capability to incorporate different nucleotide analogues that bear large modifications at the 3′ position of the sugar, three different uracil nucleotide analogues (3′ O-allyl, 3′ S-methyl, and 3′ O-azido methyl) were tested for their ability to be incorporated by two different […] (9° N ED variant polymerase, and 9° N YAV variant polymerase), compared to a control polymerase (9° N DM). A single cycle of nucleotide incorporation was performed at different time intervals using a ‘single incorporation’ method described below.
1. In a clean reaction tube, mix the following components: • 100 nM ^32P-labelled duplex DNA substrate • 50 μg/ml isolated DNA polymerase • 50 mM TrisHCl, pH 8 • 0.05% Tween20 • water to 47 μL
2. incubate the mixture at 45° C.
3. Add 4 mM MgSO4 and 2 μM 3′ modified nucleotide to the reaction mixture from 2, such that the total reaction volume is 50 μL
4. at various time intervals remove 5 μL aliquots from the reaction tube and mix with 5 μL gel loading buffer (described in Example 2)
5. Heat samples and load on acrylamide gels as described in Example 2.
To determine if the DNA polymerases described in previous examples were capable of incorporating 3′ modified nucleotide derivatives of A, G, C and T bases, and also of incorporating such nucleotide derivatives further modified by different fluorescent reporter groups, a single incorporation reaction (as described in Example 3) was performed with the following 3′ O-azido methyl nucleotide derivatives: […]

3′ modified nucleotide [3] = assay: Gel-based incorporation assay of Example 2, two cycles of enzymology on bead-bound 32P-labelled DNA template; assay type: biochemical; conditions: for Time to 50% product conversion on first cycle of incorporation / Time (mins) to 50% product conversion on second cycle of enzymology: 45° C., 50 mM Tris, pH 8, 4 mM MgSO4, 0.05 (v/v) Tween, 50 μg/ml enzyme, 2 μM 3′ modified nucleotide; for Time to 50% product conversion on first cycle of incorporation: first cycle (in parentheses); for incorporation of 3′ modified nucleotide analogues compared to 9° N DM (Y409V/A485L): region A variants, conditions of Example 2
Experimental: The mutant polymerases were assessed for their ability to incorporate a 3′ blocked nucleotide analogue using a gel-based assay as described in generic form in Example 1. The rates of incorporation of the modified nucleotides were compared to purified forms of related DNA polymerases in both a single round of incorporation and through two rounds of nucleotide incorporation. The DNA template that was used for these experiments was a commercially-synthesised biotinylated oligonucleotide.
The method for two cycles of incorporation involves the binding of the DNA primer-template to streptavidin-coated beads (Dynalbeads). These are prepared as follows: • Resuspend beads in storage pot by pipetting up and down Take 20 μL beads • Wash 3×200 μL TE buffer (10 mM Tris HCl pH 7.5, 1 mM EDTA) Add 50 μL B&W buffer (5 mM Tris HCl, pH 7.5; 1M NaCl, […]) • 25 μL H2O • 25 μL of ^32P-labelled biotin DNA template (final concentration of 100 nM)
The first cycle of enzymatic incorporation is performed on these beads as follows:
Incorporation mix 1 is added to the bead pellet from above.
Reactions are incubated at 45° C. for 15 minutes
The first cycle of enzymology is then deblocked by treatment with tri(carboxyethyl) phosphine (TCEP) as follows:
Add 65 μL TCEP (100 mM) in water and incubate at 65° C. for 15 minutes
After removal of the TE buffer, a second cycle of enzymatic incorporation is then performed by the addition of incorporation mix 2, as follows:
Take 5 μL samples out at ½, 1, 2, 4, 10, 30, 60 mins and add to gel loading buffer with EDTA.
Heat all samples to 95° C. for 10 mins and load 3 μl on a 12% acrylamide gel (Sambrook and Russell, 2001).
Time (mins) to 50% product conversion on second cycle of enzymology at 45° C., 50 mM Tris, pH 8, 4 mM MgSO4, 0.05 (v/v) Tween, 50 μg/ml enzyme, and 2 μM 3′ modified nucleotide. Time to 50% product conversion on first cycle of incorporation shown in parentheses. For other mutants the time to 50% conversion on the first cycle was not measured in these experiments

[4] = system: 3′ modified nucleotide analogues; assay: Example 1 library screen (ffT-DIG filter assay) and primer extension assay against 9DM control; assay type: biochemical; conditions: variants mutated at regions A and B
Experimental: Mutations were introduced simultaneously at two regions of the 9° N DNA polymerase sequence, residues 408-410, and residues 484-486. A library of polymerase variants was screened for the incorporation of the 3′ modified nucleotide analogues.
The variant polymerases have increased activity towards the modified nucleotides utilised in the experiments. Thus, they appear to incorporate nucleotide analogues which have been modified at the 3′ sugar hydroxyl such that the substituent is larger in size than the naturally occurring 3′ hydroxyl group in primer extension assays faster than previously available polymerases which can act as a control polymerase, such as the 9° N (-exo) Y409V/A485L double mutant (designated 9DM herein).
There are many different methods for screening for nucleotide incorporation that are variations on the method of Sagner et al. (1991). One suitable method is described herein for the incorporation of 3′ modified nucleotide analogues that uses a digoxigenin-3-O-methyl-carbonyl-e-aminocaproic acid (DIG) derivative of the relevant nucleotide analogue (ffT-DIG)
Remove tape and 3 MM paper and place filter back in petri dish. Add incorporation solution pre-warmed to temperature that incorporation will be tested at. […]
This is a generalised method. […] Also, have ready eppendorf containing 1 μl CHASE mix for each reaction. […]

Molecule | incorporation of uracil nucleotide analogues with different 3′ modifications (3′ modified nucleotide [2]; 2 μM nucleotide) | Time to 50% product conversion on first cycle of incorporation (3′ modified nucleotide [3]) | Time (mins) to 50% product conversion on second cycle of enzymology (3′ modified nucleotide [3]) | incorporation of 3′ modified nucleotide analogues compared to 9° N DM (Y409V/A485L) (3′ modified nucleotide [3]) | other results
Y412V: Vent DNA polymerase with mutation Y412V (Gardner and Jack 1999) |  |  |  |  | rate enhancement with cordycepin [1]: 2 fold
B1 | incorporated efficiently | min (5 sec) | 1.2 min | best incorporation rate | concentration of 3′ blocked nucleotide at which incorporation can be measured (as low as) (3′ modified nucleotide [2]; first cycle, single cycle experiment): 50 nM
B2 |  |  | 6.9 min |  | 
B3 |  |  |  |  | incorporation of 3′ modified nucleotide analogues compared to control polymerase (9DM) [4]: improved incorporation
B4 | incorporated efficiently | min (16 sec) | 5.2 min | improved incorporation | substrate conversion (3′ modified nucleotide [2]; each 3′ O-azido methyl nucleotide derivative of Table IV (A, G, C, T; different dyes), 2 μM nucleotide, within 3 minutes): greater than 90%; rate of incorporation of the modified nucleotides compared to the original mutant bearing changes at regions A and B (2E) (3′ modified nucleotide [3]): enhanced rate of incorporation
